The chains are these.
B1: 365_A03 (antibody, V domains shown)
VH: EVQLLESGGGLVQPGGSLRLSCAASGFTFSSYSMNWVRQAPGKGLEWVAGINYNSGYKGYADSVKGRFTISRDNSKNTLYLQMNSLRAEDTAVYYCARSANWHDTALDYWGQGTLVTVSS
VL: DIQMTQSPSSLSASVGDRVTITCRASQSILSYLNWYQQKPGKAPKLVIYAVTSRASGVPSRFSGSGSGTDFTLTISSLQPEDFATYYCQQSYDSPLTFGGGTKVEIK
B2: 365_F06 (antibody, V domains shown)
VH: EVQLLESGGGLVQPGGSLRLSCAASGFTFSSYGMNWVRQAPGKGLEWVAGINYNSGYKSYADSVKGRFTISRDNSKNTLYLQMNSLRAEDTAVYYCARSANWHDTALDYWGQGTLVTVSS
VL: DIQMTQSPSSLSASVGDRVTITCRASQSILSYVNWYQQKPGKAPKLLIYAATSRASGVPSRFSGSGSGTDFTLTISSLQPEDFATYYCQQSDNLPLTFGGGTKVEIK
B3: 365_C10 (antibody, V domains shown)
VH: EVQLLESGGGLVQPGGSLRLSCAASGFTFSSYGMHWVRQAPGKGLEWVASINYNGGYTSYADSVKGRFTISRDNSKNTLYLQMNSLRAEDTAVYYCARSANWHDTALDYWGQGTLVTVSS
VL: DIQMTQSPSSLSASVGDRVTITCRASQSILSYVNWYQQKPGKAPKLLIYAATSLASGVPSRFSGSGSGTDFTLTISSLQPEDFATYYCQQSYESPLTFGGGTKVEIK
B4: 365_B01 (antibody, V domains shown)
VH: EVQLLESGGGLVQPGGSLRLSCAASGFTFDSYGMHWVRQAPGKGLEWVASINYNSGYTSYADSVKGRFTISRDNSKNTLYLQMNSLRAEDTAVYYCARSANWHDTALDYWGQGTLVTVSS
VL: DIQMTQSPSSLSASVGDRVTITCRASQSISSYVNWYQQKPGKAPKLVIYAATSRASGVPSRFSGSGSGTDFTLTISSLQPEDFATYYCQQSYESPLTFGGGTKVEIK
B5: 365_D12 (antibody, V domains shown)
VH: EVQLLESGGGLVQPGGSLRLSCAASGFTFDSYGMNWVRQAPGKGLEWVSNINYNGGYTGYADSVKGRFTISRDNSKNTLYLQMNSLRAEDTAVYYCARSANWHDTALDYWGQGTLVTVSS
VL: DIQMTQSPSSLSASVGDRVTITCRASQSIVTYLNWYQQKPGKAPKLVIYAATSRASGVPSRFSGSGSGTDFTLTISSLQPEDFATYYCQQSYDTPLTFGGGTKVEIK
B6: 365_B06 (antibody, V domains shown)
VH: EVQLLESGGGLVQPGGSLRLSCAASGFTFDSYGMHWVRQAPGKGLEWVSNINYNGGYKSYADSVKGRFTISRDNSKNTLYLQMNSLRAEDTAVYYCARSANWHDTALDYWGQGTLVTVSS
VL: DIQMTQSPSSLSASVGDRVTITCRASQSILTYVNWYQQKPGKAPKLLIYATTSLASGVPSRFSGSGSGTDFTLTISSLQPEDFATYYCQQSYDLPLTFGGGTKVEIK
B7: 365_A12 (antibody, V domains shown)
VH: EVQLLESGGGLVQPGGSLRLSCAASGFTFSSYGMHWVRQAPGKGLEWVAGINYNGGYTSYADSVKGRFTISRDNSKNTLYLQMNSLRAEDTAVYYCAKSANWHDTHLDYWGQGTLVTVSS
VL: DIQMTQSPSSLSASVGDRVTITCRASQSILTYVNWYQQKPGKAPKLLIYAATSRHSGVPSRFSGSGSGTDFTLTISSLQPEDFATYYCQQSYENPLTFGGGTKVEIK
B8: 365_B07 (antibody, V domains shown)
VH: EVQLLESGGGLVQPGGSLRLSCAASGFTFSSYGMHWVRQAPGKGLEWVASINYNSGYTSYADSVKGRFTISRDNSKNTLYLQMNSLRAEDTAVYYCARSANWHDTALDYWGQGTLVTVSS
VL: DIQMTQSPSSLSASVGDRVTITCRASQSILTYLNWYQQKPGKAPKLLIYAATSRASGVPSRFSGSGSGTDFTLTISSLQPEDFATYYCQQSYENPLTFGGGTKVEIK
B9: 365_E05 (antibody, V domains shown)
VH: EVQLLESGGGLVQPGGSLRLSCAASGFTFSSYGMHWVRQAPGKGLEWVAGINYNGGYTSYADSVKGRFTISRDNSKNTLYLQMNSLRAEDTAVYYCARSANWHDTALDYWGQGTLVTVSS
VL: DIQMTQSPSSLSASVGDRVTITCRASQSIVSYVNWYQQKPGKAPKLLIYAATSLASGVPSRFSGSGSGTDFTLTISSLQPEDFATYYCQQSYDNPLTFGGGTKVEIK
B10: 365_D09 (antibody, V domains shown)
VH: EVQLLESGGGLVQPGGSLRLSCAASGFTFSSYGMHWVRQAPGKGLEWVSGINYNSGYTSYADSVKGRFTISRDNSKNTLYLQMNSLRAEDTAVYYCARSANWHDTALDYWGQGTLVTVSS
VL: DIQMTQSPSSLSASVGDRVTITCRASQSILSYLNWYQQKPGKAPKLLIYAATSRASGVPSRFSGSGSGTDFTLTISSLQPEDFATYYCQQSDESPLTFGGGTKVEIK
B11: 365_E09 (antibody, V domains shown)
VH: EVQLLESGGGLVQPGGSLRLSCAASGFTFSSYGMHWVRQAPGKGLEWVASINYNSGYKSYADSVKGRFTISRDNSKNTLYLQMNSLRAEDTAVYYCARSANWHDTALDYWGQGTLVTVSS
VL: DIQMTQSPSSLSASVGDRVTITCRASQSILTYVNWYQQKPGKAPKLVIYAATSRASGVPSRFSGSGSGTDFTLTISSLQPEDFATYYCQQSDDSPLTFGGGTKVEIK
B12: 365_E07 (antibody, V domains shown)
VH: EVQLLESGGGLVQPGGSLRLSCAASGFTFDSYGMHWVRQAPGKGLEWVSGINYNSGYTSYADSVKGRFTISRDNSKNTLYLQMNSLRAEDTAVYYCAKSANWHDTHLDYWGQGTLVTVSS
VL: DIQMTQSPSSLSASVGDRVTITCRASQSILSYLNWYQQKPGKAPKLLIYAATSRASGVPSRFSGSGSGTDFTLTISSLQPEDFATYYCQQSYDNPLTFGGGTKVEIK
B13: 365_B11 (antibody, V domains shown)
VH: EVQLLESGGGLVQPGGSLRLSCAASGFTFSSYGMHWVRQAPGKGLEWVAGINYNGGYTSYADSVKGRFTISRDNSKNTLYLQMNSLRAEDTAVYYCARSANWHDTALDYWGQGTLVTVSS
VL: DIQMTQSPSSLSASVGDRVTITCRASQSIISYLNWYQQKPGKAPKLVIYATTSRHSGVPSRFSGSGSGTDFTLTISSLQPEDFATYYCQQSYDSPLTFGGGTKVEIK
B14: 365_C12 (antibody, V domains shown)
VH: EVQLLESGGGLVQPGGSLRLSCAASGFTFSSYGMNWVRQAPGKGLEWVAGINYNSGYKSYADSVKGRFTISRDNSKNTLYLQMNSLRAEDTAVYYCARSANWHDTALDYWGQGTLVTVSS
VL: DIQMTQSPSSLSASVGDRVTITCRASQSIVSYVNWYQQKPGKAPKLVIYAVTSLASGVPSRFSGSGSGTDFTLTISSLQPEDFATYYCQQSYDTPLTFGGGTKVEIK
B15: 365_E01 (antibody, V domains shown)
VH: EVQLLESGGGLVQPGGSLRLSCAASGFTFSDYSMNWVRQAPGKGLEWVSGINYNSGYKGYADSVKGRFTISRDNSKNTLYLQMNSLRAEDTAVYYCARSANWHDTALDYWGQGTLVTVSS
VL: DIQMTQSPSSLSASVGDRVTITCRASQSIISYLNWYQQKPGKAPKLLIYAATSRASGVPSRFSGSGSGTDFTLTISSLQPEDFATYYCQQSYDSPLTFGGGTKVEIK
B16: 365_F12 (antibody, V domains shown)
VH: EVQLLESGGGLVQPGGSLRLSCAASGFTFSDYSMNWVRQAPGKGLEWVSGINYNGGYTSYADSVKGRFTISRDNSKNTLYLQMNSLRAEDTAVYYCARSANWHDTHLDYWGQGTLVTVSS
VL: DIQMTQSPSSLSASVGDRVTITCRASQSILTYVNWYQQKPGKAPKLVIYAATSRHSGVPSRFSGSGSGTDFTLTISSLQPEDFATYYCQQSYETPLTFGGGTKVEIK
B17: 365_G01 (antibody, V domains shown)
VH: EVQLLESGGGLVQPGGSLRLSCAASGFTFDSYGMNWVRQAPGKGLEWVAGINYNSGYKSYADSVKGRFTISRDNSKNTLYLQMNSLRAEDTAVYYCARSANWHDTALDYWGQGTLVTVSS
VL: DIQMTQSPSSLSASVGDRVTITCRASQSILTYVNWYQQKPGKAPKLLIYATTSRASGVPSRFSGSGSGTDFTLTISSLQPEDFATYYCQQSYDSPLTFGGGTKVEIK
B18: 365_A11 (antibody, V domains shown)
VH: EVQLLESGGGLVQPGGSLRLSCAASGFTFDDYGMNWVRQAPGKGLEWVSGINYNSGYTSYADSVKGRFTISRDNSKNTLYLQMNSLRAEDTAVYYCARSANWHDTALDYWGQGTLVTVSS
VL: DIQMTQSPSSLSASVGDRVTITCRASQSILSYLNWYQQKPGKAPKLVIYAATSLASGVPSRFSGSGSGTDFTLTISSLQPEDFATYYCQQSYESPLTFGGGTKVEIK
B19: 365_C01 (antibody, V domains shown)
VH: EVQLLESGGGLVQPGGSLRLSCAASGFTFDSYGMNWVRQAPGKGLEWVSSINYNSGYKSYADSVKGRFTISRDNSKNTLYLQMNSLRAEDTAVYYCARSANWHDTHLDYWGQGTLVTVSS
VL: DIQMTQSPSSLSASVGDRVTITCRASQSIVSYLNWYQQKPGKAPKLVIYAVTSRASGVPSRFSGSGSGTDFTLTISSLQPEDFATYYCQQSYESPLTFGGGTKVEIK
B20: 365_F01 (antibody, V domains shown)
VH: EVQLLESGGGLVQPGGSLRLSCAASGFTFDSYSMNWVRQAPGKGLEWVSGINYNSGYKGYADSVKGRFTISRDNSKNTLYLQMNSLRAEDTAVYYCARSANWHDTHLDYWGQGTLVTVSS
VL: DIQMTQSPSSLSASVGDRVTITCRASQSIVSYLNWYQQKPGKAPKLVIYAATSLASGVPSRFSGSGSGTDFTLTISSLQPEDFATYYCQQSYELPLTFGGGTKVEIK
B21: 365_C11 (antibody, V domains shown)
VH: EVQLLESGGGLVQPGGSLRLSCAASGFTFSSYSMNWVRQAPGKGLEWVAGINYNGGYKSYADSVKGRFTISRDNSKNTLYLQMNSLRAEDTAVYYCARSANWHDTHLDYWGQGTLVTVSS
VL: DIQMTQSPSSLSASVGDRVTITCRASQSIITYLNWYQQKPGKAPKLVIYAVTSRASGVPSRFSGSGSGTDFTLTISSLQPEDFATYYCQQSYSLPLTFGGGTKVEIK

The assay addresses Human Fc (human). The experiment in a line: ELISA; negative control. On the technique in general: In an ELISA, binding on a coated surface is turned into a signal by an enzyme label.
B1: the optical density was 0.342 OD.
For B2, the optical density is 0.329 OD.
The result for B3 reads 0.397 OD; that for B4, 0.445 OD; that for B5, 0.34 OD.
With B6, the optical density was determined as 0.281 OD.
As for B7, the figure is 0.422 OD; as for B8, 0.269 OD.
As to B9, the optical density was determined as 0.379 OD.
As for B10, the figure is 0.302 OD.
B11 displayed an optical density of 0.322 OD.
As to B12, the optical density was 0.302 OD.
As for B13, the figure is 0.305 OD.
The result for B14 reads 0.332 OD; that for B15, 0.363 OD.
In the case of B16, the optical density stood at 0.411 OD.
As for B17, the figure is 0.39 OD; as for B18, 0.299 OD; as for B19, 0.376 OD.
As for B20, the figure is 0.341 OD; as for B21, 0.296 OD.

(Values after patent publication US20210380703A1.)
